According to patent US20080015165A1, “NOVEL POLYPEPTIDE” (KYOWA HAKKO KOGYO CO., LTD., priority 1998, published 2008):

B1: Fuc-TVII: known human α1,3-fucosyltransferase, previously cloned, expressed in Namalwa cells (protein, UniProt Q11130 1-342, looked up)
Alpha-(1,3)-fucosyltransferase …: MNNAGHGPTRRLRGLGVLAGVALLAALWLLWLLGSAPRGTPAPQPTITILVWHWPFTDQPPELPSDTCTRYGIARCHLSANRSLLASADAVVFHHRELQTRRSHLPLAQRPRGQPWVWASMESPSHTHGLSHLRGIFNWVLSYRRDSDIFVPYGRLEPHWGPSPPLPAKSRVAAWVVSNFQERQLRARLYRQLAPHLRVDVFGRANGRPLCASCLVPTVAQYRFYLSFENSQHRDYITEKFWRNALVAGTVPVVLGPPRATYEAFVPADAFVHVDDFGSARELAAFLTGMNESRYQRFFAWRDRLRVRLFTDWRERFCAICDRYPHLPRSQVYEDLEGWFQA
B2: Mouse Fuc-TIV: known mouse α1,3-fucosyltransferase expressed from pCDM8-mFT4 for comparison (protein, UniProt Q11127 1-433, looked up)
Alpha-(1,3)-fucosyltransferase …: MAPARQELQHESRCRPSRTVDAWRAAVATRGRHMETPGYRRRTRCGGWGLPRSVSSLAAVGLLCTALTTFICWGQLPPLPWASPAPQRLVGVLLWWEPFRGRGGYPKSPPDCSLRFNISGCRLLTDRAAYGEAQAVLFHHRDLVKELHDWPPPWGARERTDKALVLRVFDDQEGAVTLTGKALETVGSRPPGQRWVWMNFESPSHTPGLRGLAKDLFNWTLSYRTDSDVFVPYGFLYSRSDPTEQPSGLGPQLARKRGLVAWVVSNWNEHQARVRYYHQLSRHVSVDVFGRTGPGRPVPAIGLLHTVARYKFYLAFENSRHVDYITEKLWRNAFLAGAVPVVLGPDRANYERFVPRGAFIHVDDFPNAASLAAYLLFLDRNVAVYRRYFRWRRSFAVHITSFWDEQWCRTCQAVQTSGDQPKSIHNLADWFQR
B3: Human Fuc-TIII: known human α1,3-fucosyltransferase, previously cloned, used for comparison (protein, UniProt P21217 1-361, looked up)
3-galactosyl-N-acetylglucosami …: MDPLGAAKPQWPWRRCLAALLFQLLVAVCFFSYLRVSRDDATGSPRAPSGSSRQDTTPTRPTLLILLRTWPFHIPVALSRCSEMVPGTADCHITADRKVYPQADMVIVHHWDIMSNPKSRLPPSPRPQGQRWIWFNLEPPPNCQHLEALDRYFNLTMSYRSDSDIFTPYGWLEPWSGQPAHPPLNLSAKTELVAWAVSNWKPDSARVRYYQSLQAHLKVDVYGRSHKPLPKGTMMETLSRYKFYLAFENSLHPDYITEKLWRNALEAWAVPVVLGPSRSNYERFLPPDAFIHVDDFQSPKDLARYLQELDKDHARYLSYFRWRETLRPRSFSWALDFCKACWKLQQESRYQTVRSIAAWFT
B4: Fuc-TV: known human α1,3-fucosyltransferase, previously cloned, expressed in Namalwa cells (protein, UniProt Q11128 1-374, looked up)
4-galactosyl-N-acetylglucosami …: MDPLGPAKPQWLWRRCLAGLLFQLLVAVCFFSYLRVSRDDATGSPRPGLMAVEPVTGAPNGSRCQDSMATPAHPTLLILLWTWPFNTPVALPRCSEMVPGAADCNITADSSVYPQADAVIVHHWDIMYNPSANLPPPTRPQGQRWIWFSMESPSNCRHLEALDGYFNLTMSYRSDSDIFTPYGWLEPWSGQPAHPPLNLSAKTELVAWAVSNWKPDSARVRYYQSLQAHLKVDVYGRSHKPLPKGTMMETLSRYKFYLAFENSLHPDYITEKLWRNALEAWAVPVVLGPSRSNYERFLPPDAFIHVDDFQSPKDLARYLQELDKDHARYLSYFHWRETLRPRSFSWALAFCKACWKLQQESRYQTVRSIAAWFT
B5: Human Fuc-TVI: known human α1,3-fucosyltransferase, previously cloned, used for comparison (protein, UniProt P51993 1-359, looked up)
4-galactosyl-N-acetylglucosami …: MDPLGPAKPQWSWRCCLTTLLFQLLMAVCFFSYLRVSQDDPTVYPNGSRFPDSTGTPAHSIPLILLWTWPFNKPIALPRCSEMVPGTADCNITADRKVYPQADAVIVHHREVMYNPSAQLPRSPRRQGQRWIWFSMESPSHCWQLKAMDGYFNLTMSYRSDSDIFTPYGWLEPWSGQPAHPPLNLSAKTELVAWAVSNWGPNSARVRYYQSLQAHLKVDVYGRSHKPLPQGTMMETLSRYKFYLAFENSLHPDYITEKLWRNALEAWAVPVVLGPSRSNYERFLPPDAFIHVDDFQSPKDLARYLQELDKDHARYLSYFRWRETLRPRSFSWALAFCKACWKLQEESRYQTRGIAAWFT

Assays:
[1] = Enzyme activity for a poly-N-acetyllactosamine sugar chain, Namalwa cell extract, HPLC; type: biochemical; conditions: substrate S; for Production (%) P1 / Production (%) P2 / Production (%) P3: relative value, total of products P1, P2 and P3 by each enzyme = 100%
Description: Using a poly-N-acetyllactosamine sugar chain, it was examined that to which GlcNAc in the sugar chains, human Fuc-TIX and 5 types of human α1,3-fucosyltransferase (Fuc-TIII, Fuc-TIV, Fuc-TV, Fuc-TVI, and Fuc-TVII) that had been cloned so far transferred fucose.
Control plasmid (pAMo) and the human Fuc-TIX expression plasmid pAMo-FT9 were introduced into Namalwa cells according to the method shown in Example 1 (3), thereby obtaining stable transformants.
Namalwa cells expressing each of the other 5 types of human α1,3-fucosyltransferases (Fuc-TIII, Fuc-TIV, Fuc-TV, Fuc-TVI, and Fuc-TVII) were obtained according to the previous report (Glycoconjugate J., 13, 802-812, Biochem. Biophys. Res. Commun., 237, 131-137, 1997).
The resultant transformants (about 1×10^7) were collected in microtubes (1.5 ml, manufactured by Eppendolf), followed by centrifugation at 550×g for 7 minutes to collect the cells.
The collected cells were washed with 0.9 ml of PBS. The washed cells were suspended in 100 μl of a solution which consisted of 20 mM HEPES (pH 7.2) and 1% TrironX-100, then allowed to stand at 4° C. for 10 minutes. Subsequently the cells were disrupted using a ultrasonicator (Bioruptor; manufactured by COSMO BIO CO., LTD.)
After disruption of the cells, each supernatant was obtained by centrifugation at 550×g for 7 minutes and used as an enzyme sample. A poly-N-acetyllactosamine sugar chain (Galβ1-4GlcNAcβ1-3Galβ1-4GlcNAcβ1-3Galβ1-4GlcNAc) consisting of 6 sugars was fluorescently labeled with 2-aminobenzamide to make a sugar chain (Galβ1-4GlcNAcβ1-3Galβ1-4GlcNAcβ1-3Galβ1-4GlcNAc-2AB: abbreviated as S in FIGS. 13 and 15, and table 3), which was used as a substrate
Florescent labeling was performed using a Signal™ 2-AB glycan labeling kit (manufactured by Oxford GlycoScience). A poly-N-acetyllactosamine sugar chain (Galβ1-4GlcNAcβ1-3Galβ1-4GlcNAcβ1-3Galβ1-4GlcNAc) was prepared according to WO98/03524.
Samples were allowed to react in 20 μl of an assay solution [50 mM cacodylate (pH 6.8), 5 mM ATP, 10 mM L-fucose, 75 μM […] (manufactured by SIGMA), 25 mM MnCl2, 15 μM fluorescently labeled sugar chain substrate, 6 μl of the cell lysate above] at 37° C. for 2 hours, followed by treatment at 100° C. for 3 minutes to stop the reaction. Next 200 μl of water was added to the samples, and the supernatant was obtained by centrifugation at 10,000×g for 5 minutes. Using an aliquot of the supernatant (10 μl), products were analyzed by HPLC under the following conditions.
HPLC: • Column—TSK-gel ODS-80TsQA column (4.6×250 mm; TOSOH CORPORATION) • Eluate—0.02 M ammonium acetate (pH 4.0) containing 7% methanol • Elution temperature—50° C. • Flow rate—1.0 ml/min. • Detection—Fluorescence spectrum photometer FB-920 (manufactured by JASCO Corporation) (excitation wavelength: 330 nm, radiation wavelength: 420 nm)

[2] = In vitro α1,3-fucosyltransferase activity, COS-1 cell lysate, pyridylaminated substrate, HPLC; type: biochemical; conditions: activity of human Fuc-TVI for α2,3-sialylLNnT taken as 100; 25 μM substrate, 2 hours at 37° C.; normalized to transcript amount
Description: Each α1,3-fucosyltransferase expression plasmid (15 μg) was introduced into 1×10^7 COS-1 cells.
This introduction was performed by electroporation method using a gene pulser (manufactured by Bio-Rad) according to the Bio-Rad's instructional manual attached thereto. At this time, 1 μg of a luciferase expression vector, which was constructed by inserting β-actin promoter into a Hind III site of a vector pSVOA/L [Experimental Medicine, 7, 96, (1989)] was co-introduced as an index of gene transfer efficiency.
After the gene introduction, COS-1 cells were dispensed into three dishes for cell culture with a diameter of 15 cm and then cultured for 48 hours.
The cells in the remaining two dishes were collected, suspended in a solution (20 mM HEPES (pH 7.4), 2% TrironX-100), then ultrasonicated for a short time period, thereby preparing cell lysate. The protein concentration of the cell lysate was measured using a micro BCA protein assay reagent kit (manufactured by PIERCE).
The enzymatic activities of luciferase and α1,3-fucosyltransferase were measured using the cell lysate. […]
Each of the substrates was allowed to react in assay solution with or without GDP-Fuc (sugar donator), then analyzed with HPLC. […]
The products were detected using a fluorescent spectrum photometer FP-920 (JASCO Corporation) at excitation wavelength of 320 nm and emission wavelength of 400 nm. […]

| Molecule | major product ([1]; extract of Namalwa cells expressing the enzyme) | Production (%) P1 [1] [%] | Production (%) P2 [1] [%] | Production (%) P3 [1] [%] | Relative activity of α1,3-fucosyltransferases for substrate LNT [2] |
| --- | --- | --- | --- | --- | --- |
| B1 | no product | 0.0 | 0.0 | 0.0 |  |
| B2 |  |  |  |  | 0 |
| B3 |  | 2.0 | 98.0 | 0.0 |  |
| B4 |  | 7.5 | 92.5 | 0.0 |  |
| B5 |  | 8.3 | 88.7 | 3.0 |  |
